Bounds are passed on as bounds.

In assay [1] the target is human Broccoli Ndc80-GFP construct (human) (UniProt O14777). As to the kind of experiment: binding of microtubules to protein-coated beads seen by fluorescence microscopy.
In assay [2] the target is Xenopus laevis CENP-E-GFP construct (1-473 aa) (Xenopus laevis). Described as above.
Assay [3] concerns the target human Broccoli Ndc80-GFP construct (human) (UniProt O14777).

UniProt O14777, sequence (O14777 whole entry, looked up, the tested form may be a part): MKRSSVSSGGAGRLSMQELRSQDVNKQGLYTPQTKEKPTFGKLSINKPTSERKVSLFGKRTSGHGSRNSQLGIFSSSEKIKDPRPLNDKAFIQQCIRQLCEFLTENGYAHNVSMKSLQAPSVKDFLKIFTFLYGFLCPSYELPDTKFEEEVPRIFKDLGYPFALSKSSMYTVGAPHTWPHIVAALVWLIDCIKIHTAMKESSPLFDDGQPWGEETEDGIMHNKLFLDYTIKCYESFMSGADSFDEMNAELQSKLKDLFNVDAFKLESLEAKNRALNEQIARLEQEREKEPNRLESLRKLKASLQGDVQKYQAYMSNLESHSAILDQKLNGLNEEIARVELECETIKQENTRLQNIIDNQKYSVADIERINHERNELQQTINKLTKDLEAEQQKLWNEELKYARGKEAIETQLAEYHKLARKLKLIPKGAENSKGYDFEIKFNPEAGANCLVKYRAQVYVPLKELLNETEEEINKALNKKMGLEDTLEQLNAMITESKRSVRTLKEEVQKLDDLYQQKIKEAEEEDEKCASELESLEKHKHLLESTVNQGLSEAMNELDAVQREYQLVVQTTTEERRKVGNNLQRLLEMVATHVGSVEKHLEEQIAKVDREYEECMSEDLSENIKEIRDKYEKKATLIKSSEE

As to “microtubules polymerised from bovine brain tubulin (from UniProt Q6B856 1-445) (complex)”, the percent of MT segments attached via their ends to beads coated with Ndc80 alone in assay [1] is 3%. Besides, in assay [2], the MT end-retention time worked out at 1.1 min, the percent of MT plus-ends retained at the CENP-E–coated bead stood at 24% and the time within which >80% of MTs detached (Kaplan–Meier) was below 2.5 min. Also, in assay [3], the reduction of CENP-E motor gliding velocity on beads by the Ndc80 coating was 4 fold.
